Experimental data taken from patent publication US7303752B2, “Hookworm vaccine” (The George Washington University, priority 2001, dated 2007).

B1: Ay-ASP-2: A. ceylanicum secreted protein 2, SEQ ID NO: 58; Pichia pastoris expressed (protein, listed as Ancylostoma ceylanicum)
chain: VLVPLLVLLAVSVDANSVRCGNNGMTDEARQKFLDMHNGYRSQVAKGQAKDALSGNAPKAAKMKKMVYDCGVESTAMQNAKKCVFTHSHMKGLGENIWMTTAREMDKVKSAEQASQGWFSELAEYGVGPENKLTMQLWNRPNTQIGHYTQMVWQDTYKLGCYVEWCSSMTYGVCQYSPQGNMMNSIIYEKGNPCTQDSDCGSNARCTADKALCIVHG
B2: Ay-ASP-1: A. ceylanicum secreted protein 1, SEQ ID NO: 56; Pichia pastoris expressed (protein, listed as Ancylostoma ceylanicum)
chain: FSPVVVISVVLTVAFCDASPVKASFGCSNSGITDSDRQAFLDFHNNARRRVAQGVEDNKSGKLNPAKNMYKLDWDCEMEQKLQDAIQSCPGGFAGIQGVAQNIISWSGSGGFPNPSEKINSTLASWWGGAKNNGVASDNKYTGGGLYAFSNMVFSETTKLGCAYKVCGTKLTLSCYNGIGYMTGAPMWETGQACKAGADCTTFKNSGCEDGLCTKGADVPETNQQCPSNTGMTDSVRDTFLSLHNEFRSSVARGLEPDALGGNAPKASKMLKMVYDCEVEASAIRHGNKCVYQHSHGDERPGLGENIYKTSIVKFEKNKAAKQASQLWWNELKEFGVGPSNMLTDAWNRPNMQIGHYTQMAWESTYKLGCAVIFCNDFTFGVCQYGPGGNYMNHLIYTIGQPCSECEATATCSVTEGLCSAP
B3: Ay-MTP-1: A. ceylanicum astacin protease antigen, SEQ ID NO: 60 (protein, listed as Ancylostoma ceylanicum)
chain: MRVFLLVLLLAICASAGFFDTKLGEKIKKTLGKIKAALNGTLLMKIREKFIALREKIKAKLKLSPARKALLGEIMKHIIKIKKDKIQEKGDSIEEINSKSAIGELLYQGDIVLTNKQAQEIVDIEGDENDRGKRQAFRDRNYPRTLWSKGVYYYFHGNATPEVRSVFTKGARLWMKDTCIDFFESNSAPDRIRVFKEQGCWSYVGRIGGQQDLSLGKGCESVGTAAHEIGHAIGFYHTHSRHDRDNFITFNAQNVKPDWLDQFTKQTPATNENYGITYDYGSIMHYGANSASANGQPSMVPFDPKYVETLGSPIISFYELLMINKPYECTKNCDPNTSAQCKMGGFPHPRDCGRCICPSGYGGQLCDQKPSGCGSILQATAQYQNLHDKRGNEAAGQRPREDMDFCYYWITAPQGSRIEIKIADLSRGAAVDGCQYWGVEIKTHADQRLTGYRFCAPEDVGRTLVSNSNIVPIITYNFYATTVDIQYRIVGGNVGGPRPQPQPNSNCVDNEQCATLIRTKNFCQSRSFTESVKRGLCPKACGFCR

What follows are molecules tested on A. ceylanicum (assay: Hamster vaccine trial Ham V-IV with Quil A, oral challenge with 100 A. ceylanicum L3). Settings: 10 hamsters per group; Quil A control 48.9.
Format: in vivo, Syrian hamster
Procedure: Brief Outline of Study Sections: Purpose bred Syrian hamsters are randomized into eight groups. Seven groups will receive candidate vaccines: ASP-1, ASP-2, MTP, and Irradiated larvae. One group receives only the adjuvant (Quil A) as experimental control. Each animal's specific antibody response is evaluated by direct ELISA using serum taken prior to the infective challenge. […] Quantitative ova counts, used to evaluate worm burden, are made from fecal samples collected twice after larval challenge. Also, hemoglobin levels will be tested to detect anemia caused by the blood loss during adult hookworm infection. The final report will evaluate the data and provide conclusions regarding each vaccine's effectiveness both in terms of worm burden and blood loss.
Test and Control Identification: The antigens are ASP-1, ASP-2, and MTP. The antigen-adjuvant combinations will be ASP-1+Quil A, ASP-2+Quil A, MTP+Quil A, ASP-1+ASP-2+Quil A, ASP-2+MTP+Quil A and ASP-1+MTP+Quil A. One group, which receives irradiated L3 serve as the positive control. The negative control group will receive only Quil A. Details about the antigen and the adjuvants will be included in the study records when they become available.
The test articles are diluted to provide a dose of 0.025 mg of antigen in 200 ul of antigen-adjuvant mixture per animal per injection. All injections will be performed intramuscularly (i.m). The prescribed volume dose information is recorded by Dr. Ghosh. Fresh preparation of antigens will be made the day of injection.
Administration of Test and Control Articles: The vaccines and adjuvant are administered intramuscularly (IM) three (3) times beginning when the hamsters are 28±2 days old. The vaccines are boosted at 21 days (3 weeks) intervals.
Challenge Infection: Ancylostoma ceylanicum larvae are cultured from the eggs collected in the feces of infected hamsters by qualified technicians in the Dr. Hotez lab. All hookworms in the infective challenge are approximately equal age (10±5 days). The species identity of the infective larva dose is validated, using PCR DNA amplification and specific oligonucleotide primers. All hamsters are infected by orally with the same dose of 100+/−10 3rd stage larvae of A. celyanicumfs. Larval challenge occurs on the same day for all hamsters (at age 82±2 days). Clinical Observations: The hamsters are observed daily and are weighed at least every 7 days post-challenge. Hamsters that develop signs of moderate to severe anemia, or develop a loss of body weight greater than 15% are observed more frequently. Prior to larvae infection and at least one time every 7-10 days, blood samples are collected from all hamsters. Blood withdrawal should be approximately equal in amount from all hamsters and at this time, the stool will be checked for blood.
A pre-vaccination blood sample will be examined for Hemoglobin; a sample of serum will be frozen. A hemoglobin test is performed 6-10 days and 12-18 days post-challenge. Samples of serum will be collected from each hamster; pre-immune, after 2 boosts, and after larval challenge. These samples will be labeled with unique identifiers (nature of the specimen, study-hamster number and collection date) and frozen for possible future analysis.
Quantitative Egg Counts (QEC): One week following parasite dosing, fecal examination for ova begins and will be repeated once a week until the study is terminated. The ova count method will be performed according to the SOP, which is a modification of the McMaster technique (Veterinary Clinical Pathology, 6th ed., 1994, page 9-10). The test will be performed the same way each time in order to quantitate the ova count. Fecal specimens from the hamsters will be identified by the hamster study number and the unique hamster identification number. The ova are counted in a McMaster chamber under a binocular microscope and recorded. […]

First: B1
Second: B2
The “Adult Hookworms, Mean” value of the first is higher: 33.2 for the first, 30.9 for the second.

In the case of B3, the “Adult Hookworms, Mean” value is reported as 35.3.

Same assay, conditions: Quil A control 0.45

Compared with B1, B3 is lower in “Spleen weights, Median” value: 0.47 gr for the first, 0.45 gr for the second.

For B2, the “Spleen weights, Median” value was 0.48 (0.48) ± 0.10 gr.

Same assay, conditions: Quil A control 0.47

First: B1
Second: B3
The “Spleen weights, Mean” value of the first is higher: 0.44 gr for the first, 0.42 gr for the second.

In the case of B2, the “Spleen weights, Mean” value is reported as 0.48 (0.48) ± 0.10 gr.

Same assay, conditions: Quil A control 53.0

Going from B1 to B2, the “Adult Hookworms, Median” value falls from 39.5 to 36.0.

With B3 the “Adult Hookworms, Median” value was 40.0.

Same assay, conditions: hamster, in vivo

Compared with B1, B2 is higher in “Percent reduction (EPG) relative to Quil A” value: 47.2% for the first, 59.0% for the second.

With B3 the “Percent reduction (EPG) relative to Quil A” value was 42.7%.

First: B1
Second: B2
The “Percentage Hb Increase Relative to control (QuilA)” value of the first is higher: 55.2% for the first, 32.7% for the second.

In the case of B3, the “Percentage Hb Increase Relative to control (QuilA)” value is reported as 59.9%.

First: B1
Second: B2
The “Percentage Reduction (adult hookworms) Relative to Quil A” value of the first is lower: 32.1% for the first, 36.8% for the second.

With B3 the “Percentage Reduction (adult hookworms) Relative to Quil A” value was 27.8%.

Same assay, conditions: hookworm eggs per gram, two cages per group

First: B1
Second: B2
The “EPG Mean ± SD” value of the first is higher: 1175.0 ± 176.7 for the first, 912.5 ± 17.7 for the second.

B3 was tested, and the “EPG Mean ± SD” value was 1275.0 ± 777.8.

Same assay, conditions: necropsy relative to time of infection; Quil A control 7.8

Going from B1 to B2, the “Body Weight % Reduction, Median” value falls from 4.9% to 4.4%.

For B3, the “Body Weight % Reduction, Median” value was 5.4%.

Same assay, conditions: necropsy relative to time of infection; Quil A control 7.9

Going from B1 to B2, the “Body Weight % Reduction, Mean” value falls from 4.2% to 3.4%.

In the case of B3, the “Body Weight % Reduction, Mean” value is reported as 4.0%.

Same assay, conditions: necropsy relative to time of infection; minus = decrease; Quil A −29.7

First: B1
Second: B2
The “Hb % change, Mean” value of the first is higher: −9.2% for the first, −13.3% for the second.

With B3 the “Hb % change, Mean” value was −3.5%.

Same assay, conditions: necropsy relative to time of infection; minus = decrease; Quil A −32.5

First: B1
Second: B2
The “Hb % change, Median” value of the first is higher: −13.3% for the first, −20.0% for the second.

In the case of B3, the “Hb % change, Median” value is reported as −11.9%.
